Assay results: patent US20100166704

Tests used:
GST-TIAR RRM2 = assay: EMSA; conditions: SD ±5 nM, four experiments; relative Kd; n about 1.2
GST-TIA-1 RRM2 = assay: EMSA; conditions: SD ±15 nM, four experiments; relative Kd; n about 1.1

WNV 3'(-) SL RNA (75 nt 3' terminal minus-strand)
Kd (GST-TIAR RRM2): 15 nM
Kd (GST-TIA-1 RRM2): 112 nM
